Assay results: patent publication US20220387557A1 (OXFORD UNIVERSITY INNOVATION, published 2022)

Biological target: T1, Fc tagged human TNFR2 (Sino Biological) (human, UniProt P20333 23-257)
T1 construct: Bought reagent; also called hTNFR2; hTNFR2-Fc; not shown: Fc tag of the bought protein
T1 sequence (looked up): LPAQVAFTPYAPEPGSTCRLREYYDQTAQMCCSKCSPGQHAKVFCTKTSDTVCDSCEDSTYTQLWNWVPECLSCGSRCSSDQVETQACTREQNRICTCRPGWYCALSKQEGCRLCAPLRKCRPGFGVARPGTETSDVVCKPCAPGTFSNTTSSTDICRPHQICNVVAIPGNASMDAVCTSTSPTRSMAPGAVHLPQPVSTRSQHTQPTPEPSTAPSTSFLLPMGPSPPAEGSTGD
Experiment: SPR, Biacore T200 single cycle kinetics, receptor-Fc captured on Protein A chip, TNF 1.67-15 nM

B1: TNF mutein B2 (ligand)
chain: VRSSSRTPSDKPVAHVVANPQAEGQLQWLNRRANALLANGVELRDNQLVVPSEGLYLIYSQVLFKGQGCPSTHVLLTHTISRITASYSGKVNLLSAIKSPCQRETPEGAEAKPWYEPIYLGGVFQLEKGDRLSAEINRPDYLDFAESGQVYFGIIAL
notes: Human TNF mutein, TASYSG at positions 84-89; not shown: C-terminal FLAG tag and His6 tag from vector pANT65
  Kd: 0.315 nM
